Measurements as given in the supplement of paper PMC10567573.

B1: ZNF449 (parent)
chain: HTGERPYECTVCKKRFTRRSHLIG
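Also: lentivirally expressed fusions sorted by FACS into six bins by GFP to DsRed ratio, PSI derived from sequencing read proportions per bin multiplied by bin number.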

Variants of: B1
Test: protein stability index of a GFP-peptide fusion (GPS, HEK-293T) (PSI 1-6); higher = more stable
Conditions: c terminus: a fixed tail appended
With R15F the protein stability index was 1.72. Work on R15D yielded a protein stability index of 2.09. With R15S the protein stability index was 1.52. R15A showed a protein stability index of 1.99. In the case of R15T, the protein stability index is reported as 2.52. Variant R15K has a protein stability index of 2.52. Variant R15W has a protein stability index of 2.56. R15I showed a protein stability index of 2.1. For R15E, the protein stability index was 2.04. Variant R15M has a protein stability index of 2.51. R15N showed a protein stability index of 2.58. Variant R15L has a protein stability index of 1.39. Variant R15H has a protein stability index of 3.03. Work on R15V yielded a protein stability index of 2.16. In the case of R15Q, the protein stability index is reported as 1.79. In the case of R15C, the protein stability index is reported as 2.23. In the case of R15Y, the protein stability index is reported as 1.09. In the case of R19I, the protein stability index is reported as 1.39. Work on R19D yielded a protein stability index of 1.62. Variant R19A has a protein stability index of 1.71. With R19L the protein stability index was 1.53. Variant R19M has a protein stability index of 1.53. With R19G the protein stability index was 2.22. R19P showed a protein stability index of 1.94. In the case of R19S, the protein stability index is reported as 2.76. Work on R19W yielded a protein stability index of 2.52. Variant R19C has a protein stability index of 4.07. For R19T, the protein stability index was 1.84. R19E showed a protein stability index of 2.01. With R19Y the protein stability index was 2.1. For R19H, the protein stability index was 1.96. R19K gave a protein stability index of 2.54. In the case of R19Q, the protein stability index is reported as 2.34. Work on G24K yielded a protein stability index of 3.12. Work on G24F yielded a protein stability index of 1.2. With G24N the protein stability index was 2.39. Work on G24V yielded a protein stability index of 1.6. G24M showed a protein stability index of 1.83. G24P showed a protein stability index of 1.95. With G24E the protein stability index was 1.92. With G24H the protein stability index was 1.89. G24C gave a protein stability index of 2.48. Variant G24S has a protein stability index of 2.61. With G24A the protein stability index was 2.27. With G24R the protein stability index was 2.39. Work on G24D yielded a protein stability index of 2.81. G24T gave a protein stability index of 2.45. Variant R18Q has a protein stability index of 1.81. For R18A, the protein stability index was 2.13. For R18C, the protein stability index was 2.97. For R18P, the protein stability index was 1.91. Work on R18K yielded a protein stability index of 1.97. With R18W the protein stability index was 2.33. With R18S the protein stability index was 2.5. Variant R18G has a protein stability index of 2.12. For R18I, the protein stability index was 2.7. With R18F the protein stability index was 2.18. With R18V the protein stability index was 1.59. R18M showed a protein stability index of 1.5. With R18N the protein stability index was 1.62. R18H showed a protein stability index of 1.76. Work on R18T yielded a protein stability index of 1.97. Work on R18D yielded a protein stability index of 2.88. R18L gave a protein stability index of 1.74. Variant T17L has a protein stability index of 2.19. Work on T17W yielded a protein stability index of 2.03. In the case of T17N, the protein stability index is reported as 2.21. In the case of T17R, the protein stability index is reported as 2.95. In the case of T17D, the protein stability index is reported as 1.9. With T17V the protein stability index was 1.92. Work on T17F yielded a protein stability index of 1.51. T17H gave a protein stability index of 3.25. T17I showed a protein stability index of 2.3. Variant T17C has a protein stability index of 4.7. Variant T17S has a protein stability index of 1.94. For T17M, the protein stability index was 1.22. T17G gave a protein stability index of 1.82. In the case of T17P, the protein stability index is reported as 1.78. Work on T17E yielded a protein stability index of 2.63. T17K showed a protein stability index of 2.52. Work on T17A yielded a protein stability index of 2.19. Work on H21S yielded a protein stability index of 2.93. For H21L, the protein stability index was 3.45. Work on H21T yielded a protein stability index of 2.83. In the case of H21E, the protein stability index is reported as 2.31. For H21Q, the protein stability index was 1.82. Variant H21N has a protein stability index of 2.39. Variant H21D has a protein stability index of 2.27. Variant H21W has a protein stability index of 2.78. For H21I, the protein stability index was 1.56. In the case of H21A, the protein stability index is reported as 2.22. H21F gave a protein stability index of 1.83. Work on H21C yielded a protein stability index of 2.1. H21V gave a protein stability index of 2.97. With H21Y the protein stability index was 2.35. For H21R, the protein stability index was 2.37. H21P gave a protein stability index of 3.26. Work on F16G yielded a protein stability index of 2.82. With F16W the protein stability index was 1.96. Variant F16C has a protein stability index of 2.42. Variant F16T has a protein stability index of 2. In the case of F16D, the protein stability index is reported as 3. F16M gave a protein stability index of 1.89. Work on F16S yielded a protein stability index of 2.51. For F16R, the protein stability index was 2.89. In the case of F16N, the protein stability index is reported as 2.72. Variant F16I has a protein stability index of 1.71. F16A gave a protein stability index of 2.1. Variant F16Y has a protein stability index of 1.99. Variant F16L has a protein stability index of 1.67. F16H gave a protein stability index of 3.32. Work on F16Q yielded a protein stability index of 2.4. F16P gave a protein stability index of 3.2. In the case of I23S, the protein stability index is reported as 2.55. I23H gave a protein stability index of 3.06. For I23W, the protein stability index was 2.62. In the case of I23K, the protein stability index is reported as 4.19. In the case of I23G, the protein stability index is reported as 1.81. Work on I23R yielded a protein stability index of 3.41. Variant I23F has a protein stability index of 2.42. I23A gave a protein stability index of 2.64. In the case of I23P, the protein stability index is reported as 2.23. With I23D the protein stability index was 2.8. With I23L the protein stability index was 2. Variant I23C has a protein stability index of 3.61. Variant I23T has a protein stability index of 2.41. Work on I23M yielded a protein stability index of 1.7. I23Y showed a protein stability index of 2.42. With K14V the protein stability index was 2.09. K14R showed a protein stability index of 1.53. Work on K14W yielded a protein stability index of 1.49. K14S showed a protein stability index of 2.27. Variant S20R has a protein stability index of 2.9. In the case of S20T, the protein stability index is reported as 2.18. For S20D, the protein stability index was 2.46. Work on S20H yielded a protein stability index of 2.37. S20L gave a protein stability index of 2.44. In the case of S20Y, the protein stability index is reported as 3.34. For S20Q, the protein stability index was 1.88. Work on S20E yielded a protein stability index of 2.53. S20N showed a protein stability index of 2.69. In the case of S20K, the protein stability index is reported as 2.26. For S20C, the protein stability index was 1.86. Variant S20P has a protein stability index of 2.31. In the case of S20G, the protein stability index is reported as 2.47. S20F showed a protein stability index of 1.9. S20V showed a protein stability index of 1.99. Work on S20I yielded a protein stability index of 1.57. Work on S20A yielded a protein stability index of 1.44. Variant S20M has a protein stability index of 2.21. S20W showed a protein stability index of 3.27. Work on L22W yielded a protein stability index of 2.66. L22F gave a protein stability index of 1.3. Work on L22C yielded a protein stability index of 3.46. Variant L22H has a protein stability index of 3. Work on L22N yielded a protein stability index of 2.08. For L22Y, the protein stability index was 2.33. Work on L22K yielded a protein stability index of 2.35. With L22M the protein stability index was 1.86. L22R gave a protein stability index of 3.15. Variant L22S has a protein stability index of 2.92. L22A showed a protein stability index of 3.16. L22Q gave a protein stability index of 2.58. L22E showed a protein stability index of 3.43. Variant L22D has a protein stability index of 2.6. With L22I the protein stability index was 2.23. Work on L22V yielded a protein stability index of 3.02.
